To fix the notation:
B1: ANKS4B CEN-PBM (protein)
chain: VEEDDDVQHESILNRPGLGSIVFSRNRVLDFEDISDSKRELGFKMPSELFQRQGAAGTVEEEEEEEEEEEEEKREANGTAGDLPWDEEEVEWEEDAVDATPLEVFLQSQHLEEFLPIFMREQIDLEALLLCSDEDLQNIHMQLGPRKKVLSAIDKRKQVLQQPGQLVDTSL
B2: Harmonin NPDZ1 (non-fluorescent, as used in MST and SEC-MALS) (domain or fragment, human, UniProt Q9Y6N9-1 1-197, looked up)
chain: MDRKVAREFRHKVDFLIENDAEKDYLYDVLRMYHQTMDVAVLVGDLKLVINEPSRLPLFDAIRPLIPLKHQVEYDQLTPRRSRKLKEVRLDRLHPEGLGLSVRGGLEFGCGLFISHLIKGGQADSVGLQVGDEIVRINGYSISSCTHEEVINLIRTKKTVSIKVRHIGLIPVKSSPDEPLTWQYVDQFVSESGGVRG
notes: Harmonin-a1 (USH1C), human, N-terminal domain and PDZ1, residues 1-197 of UniProt Q9Y6N9-1; source: E. coli BL21 (DE3) Rosetta, purified (Glutathione Sepharose 4B, size-exclusion chromatography)
B3: ANKS4B_(CEN-PBM) with YFP-harmonin NPDZ1.PDZ2 (complex)
chain 1: SVHHESILNRPGLGSIVFRRNRISSPEDISDSKREFGFKLPSELLQRQGASEADEGAADEEGEENGLKDDLPWDDDEVEWEEDVVDATPLEVFLLSQHLEEFLPIFKREQIDLEALLLCSDEDLQSIQMQLGPRKKVLNAINRRKQVLQQPGQLVDTSL
chain 2: MDRKVAREFRHKVDFLIENDAEKDYLYDVLRMYHQTMDVAVLVGDLKLVINEPSRLPLFDAIRPLIPLKHQVEYDQLTPRRSRKLKEVRLDRLHPEGLGLSVRGGLEFGCGLFISHLIKGGQADSVGLQVGDEIVRINGYSISSCTHEEVINLIRTKKTVSIKVRHIGLIPVKSSPDEPLTWQYVDQFVSESGGVRGSLGSPGNRENKEKKVFISLVGSRGLGCSISSGPIQKPGIFISHVKPGSLSAEVGLEIGDQIVEVNGVDFSNLDHKEAVNVLKSSRSLTISIVAAAGRELFMTDR
notes: ANKS4B, human, residues 259-417 of UniProt Q8N8V4; as m43; Harmonin-a1 (USH1C), human, residues 1-301 of UniProt Q9Y6N9-1; as m31; also called ANKS4b+^YFPNPDZ1.PDZ2; ^YFPNPDZ1.PDZ2+ANKS4B_(CEN-PBM); source: purified E. coli proteins mixed
B4: ANKS4B_(CEN-PBM) (domain or fragment)
chain: B3 chain 1
notes: ANKS4B, human, residues 259-417 of UniProt Q8N8V4; source: E. coli (BL21-AI, BL21 (DE3) Rosetta or BL21-Gold (DE3)), purified (Histrap, CaptoQ, gel filtration)
B5: YFP-SANS_(CEN-PBM) saturated with harmonin NPDZ1.PDZ2 (complex)
chain 1: DSGHDSLFTRPGLGTMVFRRNYLSSGLHGLGREDGGLDGVGAPRGRLQSSPSLDDDSLGSANSLQDRSCGEELPWDELDLGLDEDLEPETSPLETFLASLHMEDFAALLRQEKIDLEALMLCSDLDLRSISVPLGPRKKILGAVRRRRQAMERPPALEDTEL
chain 2: B3 chain 2
notes: SANS (USH1G), residues 300-461 of UniProt Q495M9; as m40; Harmonin-a1 (USH1C), human, residues 1-301 of UniProt Q9Y6N9-1; as m30; also called ^YFPSANS_(CEN-PBM)+NPDZ1.PDZ2; source: purified E. coli proteins mixed (saturating NPDZ1.PDZ2); not shown: YFP, N-terminal, kept
B6: SANS_(CEN-PBM) (domain or fragment, UniProt Q495M9 300-461, looked up)
chain: B5 chain 1
notes: source: E. coli (BL21-AI, BL21 (DE3) Rosetta or BL21-Gold (DE3)), purified (Histrap, CaptoQ, gel filtration)

One assay deals with T1, Myo7a MF1.SH3 (Mus musculus, UniProt P97479).
T1 chain: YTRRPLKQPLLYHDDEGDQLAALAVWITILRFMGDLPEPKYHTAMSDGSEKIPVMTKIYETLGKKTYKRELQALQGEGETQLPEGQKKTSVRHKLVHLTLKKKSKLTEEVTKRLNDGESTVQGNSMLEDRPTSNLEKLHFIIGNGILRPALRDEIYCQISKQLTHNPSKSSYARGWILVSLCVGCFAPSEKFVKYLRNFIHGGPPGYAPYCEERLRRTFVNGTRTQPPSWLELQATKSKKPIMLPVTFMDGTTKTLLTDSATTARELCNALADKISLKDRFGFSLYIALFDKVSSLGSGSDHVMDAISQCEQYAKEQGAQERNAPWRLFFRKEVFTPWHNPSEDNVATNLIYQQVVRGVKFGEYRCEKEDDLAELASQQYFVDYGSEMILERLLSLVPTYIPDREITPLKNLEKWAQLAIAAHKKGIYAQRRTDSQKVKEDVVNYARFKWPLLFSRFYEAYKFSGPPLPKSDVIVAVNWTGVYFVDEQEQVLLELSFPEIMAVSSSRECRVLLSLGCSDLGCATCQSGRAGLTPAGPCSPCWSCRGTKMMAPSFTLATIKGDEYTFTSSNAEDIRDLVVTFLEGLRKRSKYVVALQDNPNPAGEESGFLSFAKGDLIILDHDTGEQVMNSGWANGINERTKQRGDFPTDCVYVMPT

In the assay “SANS_(CEN-PBM)” the target is B6. Nature of the assay: SEC-MALS; Superdex 10/300 Increase; 20 mM Tris pH 7.0, 100 mM NaCl, 1 mM EGTA, 0.5 mM TCEP; samples at about 20 mg/ml. To be noted: both partners purified. On the technique in general: Size exclusion chromatography separates by hydrodynamic size, large species first.
For assay [1], the target named is T2, YFP-Full length (FL)-harmonin (harmonin-a1) (human, UniProt Q9Y6N9-1 1-552).
T2 construct: Harmonin-a1 (USH1C), human, residues 1-552 of UniProt Q9Y6N9-1; also called ^YFPFL (isoA); ^YFPFL; source: E. coli BL21 (DE3) Rosetta, purified (Glutathione Sepharose 4B, size-exclusion chromatography)
T2 sequence (looked up): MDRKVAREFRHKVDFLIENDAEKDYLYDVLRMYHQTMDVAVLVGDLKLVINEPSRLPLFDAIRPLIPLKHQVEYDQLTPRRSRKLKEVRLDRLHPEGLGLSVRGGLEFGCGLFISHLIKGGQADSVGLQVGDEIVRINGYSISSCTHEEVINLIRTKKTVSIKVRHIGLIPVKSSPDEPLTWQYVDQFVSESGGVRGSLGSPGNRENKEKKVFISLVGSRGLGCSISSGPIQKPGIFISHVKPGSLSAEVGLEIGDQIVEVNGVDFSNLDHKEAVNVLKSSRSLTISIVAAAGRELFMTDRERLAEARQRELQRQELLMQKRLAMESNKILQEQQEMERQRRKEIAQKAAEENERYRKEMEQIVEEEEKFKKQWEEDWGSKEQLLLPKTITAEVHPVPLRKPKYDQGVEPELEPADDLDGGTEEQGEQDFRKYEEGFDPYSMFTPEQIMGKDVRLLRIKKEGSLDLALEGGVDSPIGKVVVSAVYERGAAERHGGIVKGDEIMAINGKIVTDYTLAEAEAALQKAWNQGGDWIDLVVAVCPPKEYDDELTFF
The assay is described as follows: MST; as a1 but 150 mM NaCl (for FL-Harmonin-a); YFP-fused partner constant at 100 nM, non-fluorescent protein titrated. To be noted: both partners purified.

A further assay deals with T3, Myosin 7b MF1.SH3 (human, UniProt Q6PIF6 958-1586).
T3 construct: also called M7b MF1.SH3; Myo7b MF1.SH3; source: E. coli (BL21-AI, BL21 (DE3) Rosetta or BL21-Gold (DE3)), purified (Histrap, CaptoQ, gel filtration)
T3 sequence: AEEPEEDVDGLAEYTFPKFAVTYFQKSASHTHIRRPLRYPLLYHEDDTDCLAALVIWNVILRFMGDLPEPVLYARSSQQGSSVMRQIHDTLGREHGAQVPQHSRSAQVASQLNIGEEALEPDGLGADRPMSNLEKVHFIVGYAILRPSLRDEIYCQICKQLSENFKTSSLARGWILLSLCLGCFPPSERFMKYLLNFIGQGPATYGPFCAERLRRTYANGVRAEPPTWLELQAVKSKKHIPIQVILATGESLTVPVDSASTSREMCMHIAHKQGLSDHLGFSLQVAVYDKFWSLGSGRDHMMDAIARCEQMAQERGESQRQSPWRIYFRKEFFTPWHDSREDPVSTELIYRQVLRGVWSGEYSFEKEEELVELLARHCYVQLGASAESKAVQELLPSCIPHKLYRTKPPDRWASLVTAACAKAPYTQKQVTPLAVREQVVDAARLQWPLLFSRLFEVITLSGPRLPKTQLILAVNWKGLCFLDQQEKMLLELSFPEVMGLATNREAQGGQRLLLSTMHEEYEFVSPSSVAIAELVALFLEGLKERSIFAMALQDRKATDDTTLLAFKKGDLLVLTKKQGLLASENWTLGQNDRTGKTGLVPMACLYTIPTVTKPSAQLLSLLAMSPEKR
The assay is described as follows: MST; YFP-fused partner held together with a third protein (saturating concentrations; competition experiments), non-fluorescent protein titrated. Particulars: both partners purified.

A further assay concerns the target T4, YFP-Myosin 7b MF1.SH3 (human, UniProt Q6PIF6 958-1586).
T4 construct: Myosin 7b, human, MF1.SH3, residues 958-1586 of UniProt Q6PIF6; pET14-YFP vector; also called ^YFPM7b MF1.SH3; source: E. coli (BL21-AI, BL21 (DE3) Rosetta or BL21-Gold (DE3)), purified (Histrap, CaptoQ, gel filtration)
T4 sequence: T3 sequence
The assay is described as follows: MST; YFP-fused partner constant at 100 nM, non-fluorescent protein titrated (16 two-fold dilutions); 20 mM Hepes pH 7.0, 100 mM NaCl, 1 mM EGTA, 0.5 mM TCEP, 0.05% Tween 20; Monolith NT.115. Particulars: both partners purified.

Assay [2] concerns the target T5, Myosin 7a MF1.SH3 (human, UniProt Q13402-1 991-1692, residues 1523-1560 were deleted from MF1).
T5 construct: Myosin 7a, human, N-terminal MyTH4-FERM domain and SH3, residues 991-1692 of UniProt Q13402-1; residues 1523-1560 deleted; Thrombin site of the vector replaced by an SSG linker; also called M7a MF1.SH3; Myo7a MF1.SH3; source: E. coli (BL21-AI, BL21 (DE3) Rosetta or BL21-Gold (DE3)), purified (Histrap, CaptoQ, gel filtration)
T5 sequence (looked up): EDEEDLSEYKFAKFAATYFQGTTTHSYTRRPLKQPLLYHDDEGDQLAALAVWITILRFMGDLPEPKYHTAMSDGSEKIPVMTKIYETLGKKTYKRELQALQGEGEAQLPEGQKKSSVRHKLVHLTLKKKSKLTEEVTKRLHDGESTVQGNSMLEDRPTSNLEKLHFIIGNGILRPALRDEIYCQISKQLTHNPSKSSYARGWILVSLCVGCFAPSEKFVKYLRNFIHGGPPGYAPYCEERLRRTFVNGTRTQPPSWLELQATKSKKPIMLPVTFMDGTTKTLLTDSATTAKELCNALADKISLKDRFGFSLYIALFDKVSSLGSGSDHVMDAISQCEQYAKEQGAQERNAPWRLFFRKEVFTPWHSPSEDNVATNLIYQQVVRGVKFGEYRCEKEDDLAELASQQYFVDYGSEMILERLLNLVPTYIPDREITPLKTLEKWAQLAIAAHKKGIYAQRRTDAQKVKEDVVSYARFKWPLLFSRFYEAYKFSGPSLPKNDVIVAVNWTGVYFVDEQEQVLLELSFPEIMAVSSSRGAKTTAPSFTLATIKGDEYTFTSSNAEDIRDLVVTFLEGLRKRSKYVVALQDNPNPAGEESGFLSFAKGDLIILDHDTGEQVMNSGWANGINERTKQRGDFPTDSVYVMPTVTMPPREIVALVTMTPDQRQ
The assay is described as follows: MST; YFP-fused partner held together with a third protein (saturating concentrations; competition experiments), non-fluorescent protein titrated. Particulars: both partners purified.

Assay [3] concerns the target T5, Myosin 7a MF1.SH3. The assay is described as follows: SEC-MALS; Superdex 10/300 Increase; 20 mM Tris pH 7.0, 100 mM NaCl, 1 mM EGTA, 0.5 mM TCEP; samples at about 20 mg/ml. Particulars: both partners purified.

Broadly, the Kd is the constant that tells how readily two partners part at equilibrium. The term stoichiometry N denotes the number of molecules, sites or subunits per partner or assembly.

As to B1, in the assay with Myo7a MF1.SH3, the Kd is around 5 µM.

Take B2: the “stoichiometry N” value with SANS_(CEN-PBM) came out at 1. The molecule also returned a Kd in assay [1] of 11.3 µM.

B3 returned a Kd with Myosin 7b MF1.SH3 of 4 µM.

In the assay with YFP-Myosin 7b MF1.SH3, B4 had an equilibrium dissociation constant (Kd) of 2.9 ± 0.03 µM.

With B5, in the assay with Myosin 7a MF1.SH3 [2], the Kd came out at 0.386 µM.

For the molecule B6, the “stoichiometry N” value with Myosin 7a MF1.SH3 [3] is 1.

The values above are taken from paper PMC5493754, “Myosin 7 and its adaptors link cadherins to actin” (Nature Communications, 2017).
